The test system of the data set is Escherichia coli TOP10. As to the kind of experiment: shrunken log2 fold change of peptide-encoding DNA abundance (4.5 h post-induction vs induction); higher = less antimicrobial activity (less host growth inhibition). The note with it: time post-induction: 4.5 h; library: site-saturation at positions 5, 18, 19, 20.
RRIRLRPPRLPRPRPRPCIGPRP: the “shrunken log2 fold change” value was -0.147.

On to RRIRVRPPRLPRPRPRPQTNPRP, for which the “shrunken log2 fold change” value was -0.0562.

For the sequence RRIRERPPRLPRPRPRPMKNPRP, the “shrunken log2 fold change” value was -0.22.

Turning to RRIRQRPPRLPRPRPRPHQHPRP, the “shrunken log2 fold change” value is -0.309.

As to RRIRIRPPRLPRPRPRPCFTPRP, the “shrunken log2 fold change” value was -0.519.

Regarding RRIRVRPPRLPRPRPRPAFFPRP, the “shrunken log2 fold change” value came to 0.084.

Take RRIRERPPRLPRPRPRPLGEPRP: the “shrunken log2 fold change” value came to 0.0918.

In the case of RRIRGRPPRLPRPRPRPCLGPRP, the “shrunken log2 fold change” value was 0.0741.

Turning to RRIRWRPPRLPRPRPRPYDEPRP, the “shrunken log2 fold change” value is -0.114.

As for RRIRVRPPRLPRPRPRPCMIPRP, the “shrunken log2 fold change” value was -0.792.

RRIRGRPPRLPRPRPRPLVPPRP: the “shrunken log2 fold change” value came to 0.417.

With RRIRVRPPRLPRPRPRPWFMPRP, the “shrunken log2 fold change” value was -0.537.

For RRIRCRPPRLPRPRPRPCDHPRP, the “shrunken log2 fold change” value was found to be 0.0959.

Consider RRIRPRPPRLPRPRPRPANFPRP, for which the “shrunken log2 fold change” value is -0.0737.

On to RRIRWRPPRLPRPRPRPQMAPRP, for which the “shrunken log2 fold change” value is 0.242.

Consider RRIRARPPRLPRPRPRPSWVPRP, for which the “shrunken log2 fold change” value was -0.174.

For RRIRIRPPRLPRPRPRPLERPRP, the “shrunken log2 fold change” value came out at 0.0105.

As for RRIRLRPPRLPRPRPRPFCIPRP, the “shrunken log2 fold change” value was -0.22.

For RRIRDRPPRLPRPRPRPKSPPRP, the “shrunken log2 fold change” value turned out to be 0.0198.

In the case of RRIRARPPRLPRPRPRPHKHPRP, the “shrunken log2 fold change” value came out at 0.0909.

Take RRIRMRPPRLPRPRPRPDDWPRP: the “shrunken log2 fold change” value worked out at 3.03.

With RRIRSRPPRLPRPRPRPKCWPRP, the “shrunken log2 fold change” value came to 0.359.

For the sequence RRIRSRPPRLPRPRPRPTHFPRP, the “shrunken log2 fold change” value is -0.0655.

Take RRIRFRPPRLPRPRPRPPCLPRP: the “shrunken log2 fold change” value is -0.0576.

As to RRIRYRPPRLPRPRPRPCPQPRP, the “shrunken log2 fold change” value is -0.0849.

RRIRSRPPRLPRPRPRPQCWPRP: the “shrunken log2 fold change” value was found to be 0.24.

Consider RRIRWRPPRLPRPRPRPPASPRP, for which the “shrunken log2 fold change” value is 0.319.

On to RRIRDRPPRLPRPRPRPCEHPRP, for which the “shrunken log2 fold change” value is -0.133.

On to RRIRLRPPRLPRPRPRPVFQPRP, for which the “shrunken log2 fold change” value amounted to 0.042.

For RRIRMRPPRLPRPRPRPNIFPRP, the “shrunken log2 fold change” value is -0.0848.

As to RRIRERPPRLPRPRPRPPEPPRP, the “shrunken log2 fold change” value amounted to 0.333.

In the case of RRIRARPPRLPRPRPRPFLKPRP, the “shrunken log2 fold change” value was -0.349.

In the case of RRIRARPPRLPRPRPRPPCAPRP, the “shrunken log2 fold change” value turned out to be 0.598.

As for RRIRWRPPRLPRPRPRPEYDPRP, the “shrunken log2 fold change” value amounted to 0.695.

Turning to RRIRERPPRLPRPRPRPDLKPRP, the “shrunken log2 fold change” value was -0.108.

Take RRIRWRPPRLPRPRPRPLETPRP: the “shrunken log2 fold change” value was -0.0608.

As to RRIRVRPPRLPRPRPRPDIHPRP, the “shrunken log2 fold change” value is -0.427.

RRIRVRPPRLPRPRPRPLVAPRP: the “shrunken log2 fold change” value came to 0.196.

RRIRWRPPRLPRPRPRPPRDPRP: the “shrunken log2 fold change” value turned out to be 0.661.

As to RRIRKRPPRLPRPRPRPFSGPRP, the “shrunken log2 fold change” value is -0.172.

As for RRIRRRPPRLPRPRPRPHQSPRP, the “shrunken log2 fold change” value stood at 0.128.

RRIRNRPPRLPRPRPRPVRKPRP: the “shrunken log2 fold change” value came to 0.128.

On to RRIRHRPPRLPRPRPRPMSAPRP, for which the “shrunken log2 fold change” value is -0.549.

Turning to RRIRVRPPRLPRPRPRPWQFPRP, the “shrunken log2 fold change” value was -0.0175.

Take RRIRNRPPRLPRPRPRPKKTPRP: the “shrunken log2 fold change” value was -0.197.

Take RRIRLRPPRLPRPRPRPMQEPRP: the “shrunken log2 fold change” value is 0.244.

Turning to RRIRARPPRLPRPRPRPVLQPRP, the “shrunken log2 fold change” value is 1.09.

Turning to RRIRTRPPRLPRPRPRPLGNPRP, the “shrunken log2 fold change” value is -0.159.

As for RRIRMRPPRLPRPRPRPMMFPRP, the “shrunken log2 fold change” value was 0.251.

For RRIRHRPPRLPRPRPRPEALPRP, the “shrunken log2 fold change” value is -0.0062.

In the case of RRIRTRPPRLPRPRPRPKMKPRP, the “shrunken log2 fold change” value was -0.554.

Turning to RRIRKRPPRLPRPRPRPMHKPRP, the “shrunken log2 fold change” value is 0.351.

As for RRIRKRPPRLPRPRPRPERYPRP, the “shrunken log2 fold change” value was -0.0119.

Consider RRIRKRPPRLPRPRPRPLLAPRP, for which the “shrunken log2 fold change” value came out at 0.833.

Regarding RRIRHRPPRLPRPRPRPDRDPRP, the “shrunken log2 fold change” value was -0.0136.

Consider RRIRYRPPRLPRPRPRPWIQPRP, for which the “shrunken log2 fold change” value was -0.101.

Take RRIRGRPPRLPRPRPRPMTSPRP: the “shrunken log2 fold change” value was 0.445.

Turning to RRIRKRPPRLPRPRPRPELLPRP, the “shrunken log2 fold change” value was determined as 0.394.

RRIRKRPPRLPRPRPRPADAPRP: the “shrunken log2 fold change” value amounted to 0.194.

For the sequence RRIRPRPPRLPRPRPRPIHWPRP, the “shrunken log2 fold change” value worked out at 0.225.

Take RRIRRRPPRLPRPRPRPTFNPRP: the “shrunken log2 fold change” value stood at 0.077.

As for RRIRFRPPRLPRPRPRPSYFPRP, the “shrunken log2 fold change” value is -0.479.

Take RRIRFRPPRLPRPRPRPYYIPRP: the “shrunken log2 fold change” value is -0.794.

Consider RRIRMRPPRLPRPRPRPCCGPRP, for which the “shrunken log2 fold change” value is 0.215.

For RRIRQRPPRLPRPRPRPEFPPRP, the “shrunken log2 fold change” value is -0.0498.

As for RRIRRRPPRLPRPRPRPINDPRP, the “shrunken log2 fold change” value was -0.219.

In the case of RRIRDRPPRLPRPRPRPLSDPRP, the “shrunken log2 fold change” value was found to be 0.125.

Turning to RRIRHRPPRLPRPRPRPNAIPRP, the “shrunken log2 fold change” value amounted to 0.0158.

For the sequence RRIRHRPPRLPRPRPRPRRIPRP, the “shrunken log2 fold change” value worked out at 0.0543.

With RRIRSRPPRLPRPRPRPTQNPRP, the “shrunken log2 fold change” value came out at 0.375.

Turning to RRIRFRPPRLPRPRPRPENIPRP, the “shrunken log2 fold change” value is 0.0737.

As to RRIRLRPPRLPRPRPRPFIGPRP, the “shrunken log2 fold change” value was -0.305.

Regarding RRIRERPPRLPRPRPRPQVHPRP, the “shrunken log2 fold change” value is -0.445.

For RRIRPRPPRLPRPRPRPGVRPRP, the “shrunken log2 fold change” value worked out at 0.116.

Turning to RRIRERPPRLPRPRPRPEQHPRP, the “shrunken log2 fold change” value is -0.0123.

For RRIRTRPPRLPRPRPRPGLNPRP, the “shrunken log2 fold change” value was -0.213.

On to RRIRLRPPRLPRPRPRPGFSPRP, for which the “shrunken log2 fold change” value was -0.161.

Take RRIRGRPPRLPRPRPRPHIFPRP: the “shrunken log2 fold change” value turned out to be 0.224.

Consider RRIRERPPRLPRPRPRPCGAPRP, for which the “shrunken log2 fold change” value stood at 0.469.

As for RRIRVRPPRLPRPRPRPFHCPRP, the “shrunken log2 fold change” value was -0.13.

As for RRIRSRPPRLPRPRPRPIHDPRP, the “shrunken log2 fold change” value was -0.128.

Take RRIRTRPPRLPRPRPRPIAMPRP: the “shrunken log2 fold change” value was -0.387.

For the sequence RRIRARPPRLPRPRPRPLCRPRP, the “shrunken log2 fold change” value stood at 0.327.

With RRIRQRPPRLPRPRPRPCAMPRP, the “shrunken log2 fold change” value was -0.0872.

Consider RRIRNRPPRLPRPRPRPDVEPRP, for which the “shrunken log2 fold change” value was -0.00443.

For RRIRPRPPRLPRPRPRPLHKPRP, the “shrunken log2 fold change” value was -0.00927.

Consider RRIRARPPRLPRPRPRPYYNPRP, for which the “shrunken log2 fold change” value was -0.97.

On to RRIRHRPPRLPRPRPRPHESPRP, for which the “shrunken log2 fold change” value was -0.0218.

As to RRIRTRPPRLPRPRPRPNQIPRP, the “shrunken log2 fold change” value is -0.469.

With RRIRSRPPRLPRPRPRPGDMPRP, the “shrunken log2 fold change” value worked out at 0.0129.

Take RRIRLRPPRLPRPRPRPKNNPRP: the “shrunken log2 fold change” value is -0.297.

On to RRIRSRPPRLPRPRPRPCVHPRP, for which the “shrunken log2 fold change” value was -0.471.

RRIRNRPPRLPRPRPRPWDMPRP: the “shrunken log2 fold change” value is -0.304.

For RRIRIRPPRLPRPRPRPPVIPRP, the “shrunken log2 fold change” value was -0.108.

Consider RRIRIRPPRLPRPRPRPNCVPRP, for which the “shrunken log2 fold change” value was -0.376.

Turning to RRIRYRPPRLPRPRPRPTDGPRP, the “shrunken log2 fold change” value is -0.0848.

Turning to RRIRWRPPRLPRPRPRPYMIPRP, the “shrunken log2 fold change” value is -1.02.

RRIRFRPPRLPRPRPRPPWFPRP: the “shrunken log2 fold change” value is 0.033.

As to RRIRGRPPRLPRPRPRPDNCPRP, the “shrunken log2 fold change” value is -0.0626.

Take RRIRNRPPRLPRPRPRPECDPRP: the “shrunken log2 fold change” value turned out to be 0.203.

In the case of RRIRDRPPRLPRPRPRPVIYPRP, the “shrunken log2 fold change” value came out at 0.011.

For the sequence RRIRIRPPRLPRPRPRPVPCPRP, the “shrunken log2 fold change” value is -0.00376.

RRIRQRPPRLPRPRPRPLTIPRP: the “shrunken log2 fold change” value was -0.375.

RRIRCRPPRLPRPRPRPWHWPRP: the “shrunken log2 fold change” value is 0.0135.

For RRIRMRPPRLPRPRPRPMAAPRP, the “shrunken log2 fold change” value stood at 0.117.

Regarding RRIRMRPPRLPRPRPRPIPTPRP, the “shrunken log2 fold change” value is 0.0467.

For the sequence RRIRPRPPRLPRPRPRPKDLPRP, the “shrunken log2 fold change” value is -0.146.

Take RRIRMRPPRLPRPRPRPHQIPRP: the “shrunken log2 fold change” value was -0.00201.

As to RRIRGRPPRLPRPRPRPFANPRP, the “shrunken log2 fold change” value amounted to 0.0848.

For the sequence RRIRERPPRLPRPRPRPYDRPRP, the “shrunken log2 fold change” value was found to be 0.0251.

RRIRGRPPRLPRPRPRPSCSPRP: the “shrunken log2 fold change” value worked out at 0.295.

Take RRIRWRPPRLPRPRPRPFGEPRP: the “shrunken log2 fold change” value stood at 0.439.

For the sequence RRIRHRPPRLPRPRPRPVSRPRP, the “shrunken log2 fold change” value is -0.0482.

As for RRIRDRPPRLPRPRPRPCDMPRP, the “shrunken log2 fold change” value was -0.0013.

Turning to RRIRDRPPRLPRPRPRPKDGPRP, the “shrunken log2 fold change” value is -0.0429.

For RRIRHRPPRLPRPRPRPQWYPRP, the “shrunken log2 fold change” value is -0.0605.

For RRIRERPPRLPRPRPRPTLFPRP, the “shrunken log2 fold change” value worked out at 0.0897.

Turning to RRIRKRPPRLPRPRPRPDHLPRP, the “shrunken log2 fold change” value was -0.0896.

With RRIRQRPPRLPRPRPRPFITPRP, the “shrunken log2 fold change” value was -0.569.

Take RRIRARPPRLPRPRPRPFGCPRP: the “shrunken log2 fold change” value came out at 0.128.

In the case of RRIRYRPPRLPRPRPRPLPNPRP, the “shrunken log2 fold change” value is -0.296.

Turning to RRIRSRPPRLPRPRPRPNRAPRP, the “shrunken log2 fold change” value is -0.0803.

With RRIRPRPPRLPRPRPRPNRLPRP, the “shrunken log2 fold change” value is -0.0308.

Consider RRIRERPPRLPRPRPRPYLFPRP, for which the “shrunken log2 fold change” value is -0.137.

As to RRIRDRPPRLPRPRPRPYKDPRP, the “shrunken log2 fold change” value was -0.221.

Source of the values: the supplement of paper PMC9112550, “Optimization of the antimicrobial peptide Bac7 by deep mutational scanning” (BMC Biology, 2022).
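Note: peptides expressed intracellularly from a pBAD plasmid library in pooled LB shake-flask culture, induced with 0.3% L-arabinose, DNA abundance read by NGS, three biological replicates, DESeq2 with apeglm shrinkage.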
